From article PMC11467669 (The Journal of Biological Chemistry, 2024)
One block for each binder: values may come before it.

What was measured:
SEC-MALLS = target: the molecule itself; test: SEC-MALLS
[1] = target: mono-ubiquitin with an N-terminal fluorescein moiety (UniProt P0CG47 1-76, fluorescein on the N-terminus); test: fluorescence polarisation

B1: 14-3-3γ (natural protein, UniProt P61981 1-247, looked up)
chain: MVDREQLVQKARLAEQAERYDDMAAAMKNVTELNEPLSNEERNLLSVAYKNVVGARRSSWRVISSIEQKTSADGNEKKIEMVRAYREKIEKELEAVCQDVLSLLDNYLIKNCSETQYESKVFYLKMKGDYYRYLAEVATGEKRATVVESSEKAYSEAHEISKEHMQPTHPIRLGLALNYSVFYYEIQNAPEQACHLAKTAFDDAIAELDTLNEDSYKDSTLIMQLLRDNLTLWTSDQQDDDGGEGNN
stoichiometry N (SEC-MALLS): 2

B4: full-length USP8 (a.a. 7-1110), non-phosphorylated (enzyme)
chain: VPKELYLSSSLKDLNKKTEVKPEKISTKSYVHSALKIFKTAEECRLDRDEERAYVLYMKYVTVYNLIKKRPDFKQQQDYFHSILGPGNIKKAVEEAERLSESLKLRYEEAEVRKKLEEKDRQEEAQRLQQKRQETGREDGGTLAKGSLENVLDSKDKTQKSNGEKNEKCETKEKGAITAKELYTMMTDKNISLIIMDARRMQDYQDSCILHSLSVPEEAISPGVTASWIEAHLPDDSKDTWKKRGNVEYVVLLDWFSSAKDLQIGTTLRSLKDALFKWESKTVLRNEPLVLEGGYENWLLCYPQYTTNAKVTPPPRRQNEEVSISLDFTYPSLEESIPSKPAAQTPPASIEVDENIELISGQNERMGPLNISTPVEPVAASKSDVSPIIQPVPSIKNVPQIDRTKKPAVKLPEEHRIKSESTNHEQQSPQSGKVIPDRSTKPVVFSPTLMLTDEEKARIHAETALLMEKNKQEKELRERQQEEQKEKLRKEEQEQKAKKKQEAEENEITEKQQKAKEEMEKKESEQAKKEDKETSAKRGKEITGVKRQSKSEHETSDAKKSVEDRGKRCPTPEIQKKSTGDVPHTSVTGDSGSGKPFKIKGQPESGILRTGTFREDTDDTERNKAQREPLTRARSEEMGRIVPGLPSGWAKFLDPITGTFRYYHSPTNTVHMYPPEMAPSSAPPSTPPTHKAKPQIPAERDREPSKLKRSYSSPDITQAIQEEEKRKPTVTPTVNRENKPTCYPKAEISRLSASQIRNLNPVFGGSGPALTGLRNLGNTCYMNSILQCLCNAPHLADYFNRNCYQDDINRSNLLGHKGEVAEEFGIIMKALWTGQYRYISPKDFKITIGKINDQFAGYSQQDSQELLLFLMDGLHEDLNKADNRKRYKEENNDHLDDFKAAEHAWQKHKQLNESIIVALFQGQFKSTVQCLTCHKKSRTFEAFMYLSLPLASTSKCTLQDCLRLFSKEEKLTDNNRFYCSHCRARRDSLKKIEIWKLPPVLLVHLKRFSYDGRWKQKLQTSVDFPLENLDLSQYVIGPKNNLKKYNLFSVSNHYGGLDGGHYTAYCKNAARQRWFKFDDHEVSDISVSSVKSSAAYILFYTSLG
Kd [1]: 1480 nM

Results, then the binder that gave them:

Kd [1]: 367 nM
B2: USP8 Δ686–757 (FL USP8, a.a. 7-1110, entire WW-CD linker deleted) (enzyme)
chain: VPKELYLSSSLKDLNKKTEVKPEKISTKSYVHSALKIFKTAEECRLDRDEERAYVLYMKYVTVYNLIKKRPDFKQQQDYFHSILGPGNIKKAVEEAERLSESLKLRYEEAEVRKKLEEKDRQEEAQRLQQKRQETGREDGGTLAKGSLENVLDSKDKTQKSNGEKNEKCETKEKGAITAKELYTMMTDKNISLIIMDARRMQDYQDSCILHSLSVPEEAISPGVTASWIEAHLPDDSKDTWKKRGNVEYVVLLDWFSSAKDLQIGTTLRSLKDALFKWESKTVLRNEPLVLEGGYENWLLCYPQYTTNAKVTPPPRRQNEEVSISLDFTYPSLEESIPSKPAAQTPPASIEVDENIELISGQNERMGPLNISTPVEPVAASKSDVSPIIQPVPSIKNVPQIDRTKKPAVKLPEEHRIKSESTNHEQQSPQSGKVIPDRSTKPVVFSPTLMLTDEEKARIHAETALLMEKNKQEKELRERQQEEQKEKLRKEEQEQKAKKKQEAEENEITEKQQKAKEEMEKKESEQAKKEDKETSAKRGKEITGVKRQSKSEHETSDAKKSVEDRGKRCPTPEIQKKSTGDVPHTSVTGDSGSGKPFKIKGQPESGILRTGTFREDTDDTERNKAQREPLTRARSEEMGRIVPGLPSGWAKFLDPITGTFRYYHSPTNTVHMYPPEMAPSASQIRNLNPVFGGSGPALTGLRNLGNTCYMNSILQCLCNAPHLADYFNRNCYQDDINRSNLLGHKGEVAEEFGIIMKALWTGQYRYISPKDFKITIGKINDQFAGYSQQDSQELLLFLMDGLHEDLNKADNRKRYKEENNDHLDDFKAAEHAWQKHKQLNESIIVALFQGQFKSTVQCLTCHKKSRTFEAFMYLSLPLASTSKCTLQDCLRLFSKEEKLTDNNRFYCSHCRARRDSLKKIEIWKLPPVLLVHLKRFSYDGRWKQKLQTSVDFPLENLDLSQYVIGPKNNLKKYNLFSVSNHYGGLDGGHYTAYCKNAARQRWFKFDDHEVSDISVSSVKSSAAYILFYTSLG

Kd [1]: 290 nM
B3: USP8 ΔWW (WW domain-deleted mutant of FL USP8, a.a. 7-1110) (enzyme)
chain: VPKELYLSSSLKDLNKKTEVKPEKISTKSYVHSALKIFKTAEECRLDRDEERAYVLYMKYVTVYNLIKKRPDFKQQQDYFHSILGPGNIKKAVEEAERLSESLKLRYEEAEVRKKLEEKDRQEEAQRLQQKRQETGREDGGTLAKGSLENVLDSKDKTQKSNGEKNEKCETKEKGAITAKELYTMMTDKNISLIIMDARRMQDYQDSCILHSLSVPEEAISPGVTASWIEAHLPDDSKDTWKKRGNVEYVVLLDWFSSAKDLQIGTTLRSLKDALFKWESKTVLRNEPLVLEGGYENWLLCYPQYTTNAKVTPPPRRQNEEVSISLDFTYPSLEESIPSKPAAQTPPASIEVDENIELISGQNERMGPLNISTPVEPVAASKSDVSPIIQPVPSIKNVPQIDRTKKPAVKLPEEHRIKSESTNHEQQSPQSGKVIPDRSTKPVVFSPTLMLTDEEKARIHAETALLMEKNKQEKELRERQQEEQKEKLRKEEQEQKAKKKQEAEENEITEKQQKAKEEMEKKESEQAKKEDKETSAKRGKEITGVKRQSKSEHETSDAKKSVEDRGKRCPTPEIQKKSTGDVPHTSVTGDSGSGKPFKIKGQPESGILRTGTFREDTDDTERNKAQREPLTRARSEEMSSAPPSTPPTHKAKPQIPAERDREPSKLKRSYSSPDITQAIQEEEKRKPTVTPTVNRENKPTCYPKAEISRLSASQIRNLNPVFGGSGPALTGLRNLGNTCYMNSILQCLCNAPHLADYFNRNCYQDDINRSNLLGHKGEVAEEFGIIMKALWTGQYRYISPKDFKITIGKINDQFAGYSQQDSQELLLFLMDGLHEDLNKADNRKRYKEENNDHLDDFKAAEHAWQKHKQLNESIIVALFQGQFKSTVQCLTCHKKSRTFEAFMYLSLPLASTSKCTLQDCLRLFSKEEKLTDNNRFYCSHCRARRDSLKKIEIWKLPPVLLVHLKRFSYDGRWKQKLQTSVDFPLENLDLSQYVIGPKNNLKKYNLFSVSNHYGGLDGGHYTAYCKNAARQRWFKFDDHEVSDISVSSVKSSAAYILFYTSLG
